Assay results taken from patent US20110059095A1 (Regeneron, published 2011).
Substitutions are numbered along the chain they refer to. Where no end group is shown, it is not given here. The star is where a group is joined. Biotin = O=C1N[C@H]2[C@H](CS[C@H]2CCCCC(=O)*)N1

T1: Peptide A (human PAR-2), N-terminal biotinylated (Human, N-terminal biotin via G4S linker)
T1 construct: also called Peptide A N-Term
T1 peptide: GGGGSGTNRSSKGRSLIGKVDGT

T2: Peptide B (human PAR-2), N-terminal biotinylated (Human)
T2 construct: also called Peptide B N-Term
T2 peptide: Biotin-GGGGSSLIGKVDGTSHVTG

T3: Peptide B (human PAR-2), C-terminal biotinylated (Human, not fully specified)
T3 construct: also called Peptide B C-Term
T3 peptide: SLIGKVDGTSHVTGGGGGS-biotin

T4: Peptide A (human PAR-2), unbiotinylated (Human)
T4 construct: also called Peptide A No Biotin
T4 peptide: GTNRSSKGRSLIGKVDGT

B1: H4H584P (antibody, human IgG4, V domains shown)
VH: QVQLVESGGGVVQPGRSLRLSCVASGFTFSRYGMHWVRQAPGKGLEWVVVISYDGINKYYADSVKGRFTISRDNSKNTVYLQMNSLRAEDTAVYYCAKGDFWSGYFDYWGQGTLVTVSS
VL: DIVMTQTPLSSPVTLGQPASISCRSSQSLVHSDGNTYLSWLHQRPGQPPRLLIYKISNRFSGVPDRFSGSGAGTDFTLQISRVEAEDVGIYYCMQATQFPTFGGGTKVEIK
notes: also called H1H584P variable regions
B2: H4H581P (antibody, human IgG4, V domains shown)
VH: B1 VH with M34I, V49I
VL: B1 VL
notes: also called mAb H4H581P; H1H581P variable regions
B3: H4H579P (antibody, human IgG4, V domains shown)
VH: B1 VH with V48L, V49I, A92G
VL: B1 VL with A96G
notes: also called H1H579P variable regions
B4: H4H585P (antibody, human IgG4, V domains shown)
VH: B1 VH with V48L, V49I
VL: B1 VL with A96G
notes: also called H1H585P variable regions
B5: H4H583P (antibody, human IgG4, V domains shown)
VH: QVQLVESGGGVVQPGMSLRLSCTASGFTFRRYGMHWVRQAPGKGLEWVAVIWYDGSNKYYADSVKGRFTITRDNSKNTLYLQMNSLRAEDTAIYFCASEITIGDWFDPRGQGTLVTVSS
VL: AIQMTQSPSSLSASVGDRVTITCRASQGIRNDLGWFQQKPGKVPKLLIYAASTLHSGVPSRFSGSGFGTDFTLTISSLQPEDFATYYCLQDFNYPLTFGGGTKVEIK
notes: also called H1H583P variable regions
B6: H4H588N (antibody, human IgG4, V domains shown)
VH: EVQLLESGGGLVQPGGSLRLSCAASGFTFSSYAMTWVRQAPGKGLYWVSAISGGRGSAYYADSVKGRFTISRDNSKNTLYLQMNSLRAEDTAVYYCAKEGDSGYDLAYWGRGTLVTVSS
VL: DIQMTQSPSSLSASVGDRVTITCRARQGISNNLAWLQQKPGKAPKSLIYAASSLQSGIPSKFSGSGSGTYFTLTISSLQPEDFATYYCQQYKSSPLTFGGGTKVEIK
notes: also called H2M588N variable regions

Biological target: T5, Peptide F (monkey PAR-2), N-terminal biotinylated (Monkey (Macaca mulatta), N-terminal biotin via G4S linker)
T5 construct: also called Peptide F N-Term
T5 sequence (peptide, as listed by the source): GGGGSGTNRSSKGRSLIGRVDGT
Experiment: SPR, peptide immobilized

Row | Kd [pM] | T1/2 [min] | Binder
1 | 565 | 40 | B1
2 | 272 | 78 | B2
3 | 796 | 70 | B3
4 | 899 | 66 | B4
5 | 291 | 73 | B5
6 | 1810 | 94 | B6

Biological target: T1, Peptide A (human PAR-2), N-terminal …
Experiment: SPR, peptide immobilized

Row | Kd [pM] | T1/2 [min] | Binder
7 | 525 | 43 | B1
8 | 498 | 41 | B2
9 | 1610 | 46 | B3
10 | 1690 | 48 | B4
11 | 412 | 46 | B5
12 | 1050 | 189 | B6

Biological target: T2, Peptide B (human PAR-2), N-terminal …
Experiment: SPR, peptide immobilized

Row | Kd [pM] | T1/2 [min] | binding result | Binder
13 | 3200 | 30 |  | B1
14 | 2720 | 38 |  | B2
15 | 5440 | 55 |  | B3
16 | 5410 | 63 |  | B4
17 |  |  | no binding | B5
18 | 27.2 | > 1160 |  | B6

Biological target: T3, Peptide B (human PAR-2), C-terminal …
Experiment: SPR, peptide immobilized
Protocol: (§1) In another series of experiments, equilibrium dissociation constants (KD values) for purified antibody binding to selected biotinylated and unbiotinylated forms of PAR-2 peptides were determined by surface kinetics using a real-time surface plasmon resonance biosensor assay. Neutravidin (Pierce, Rockford, Ill.) was covalently coupled to the surface of a Biacore™ C1 chip or CM5 chip using amine coupling chemistry. Biotinylated (N-Term or C-Term) PAR-2 peptides (Peptides A and B) were immobilized on the surface via the high affinity binding interaction between biotin and the amine coupled Neutravidin.
(§2) In a first experiment using this format, varying concentrations (ranging from 5 to 100 μg/ml) of purified antibody were injected at a rate of 50 μl/min over a surface coated with immobilized peptide at low-density (<1RU) for 300 seconds. Antibody-peptide binding and dissociation was monitored in real time 25° C.

Row | Kd [pM] | T1/2 [min] | binding result | Binder
19 | 1660 | 15 |  | B1
20 | 346 | 49 |  | B2
21 | 453 | 96 |  | B3
22 | 376 | 123 |  | B4
23 |  |  | no binding | B5
24 | 1030 | 70 |  | B6

Biological target: T6, Peptide A (human PAR-2), C-terminal biotinylated (Human, C-terminal biotin via G4S linker)
T6 construct: also called Peptide A C-Term
Experiment: SPR, peptide immobilized
Protocol: as §1, §2

Row | Kd [pM] | T1/2 [min] | Binder
25 | 688 | 55 | B1
26 | 237 | 134 | B2
27 | 143 | 479 | B3
28 | 151 | 493 | B4
29 | 898 | 34 | B5
30 | 517 | 141 | B6

Biological target: T5, Peptide F (monkey PAR-2), N-terminal …
Experiment: peptide ELISA titration
Protocol: (§3) Anti-PAR-2 antibodies were tested for their ability to bind to the PAR-2 peptides. Various PAR-2 Peptides (Table 3) were coated onto 96-well plates at a concentration of 2 μg/ml and incubated overnight followed by blocking in a suitable blocking agent for one hour. […] Purified anti-PAR-2 antibodies were added to the plate coated with PAR-2 peptides to a final concentration ranging from 0.2 to 2.0 μg/ml and incubated for one hour at room temperature. Detection of bound antibodies was determined with Horse-Radish Peroxidase (HRP) conjugated anti-mouse or human IgG (Jackson Immuno Research Lab, West Grove, Pa.) and developed by standard colorimetric response using tetramethylbenzidine (TMB) substrate. Absorbance was read at OD₄₅₀ for 0.1 second.
(§4) In another experiment, selected anti-PAR-2 antibodies cloned onto human IgG4 were tested for binding to unbiotinylated and biotinylated forms of PAR-2 peptides (Peptides A, E, F and G; as described above). […] Absorbance values at 450 nm were analyzed using a sigmoidal dose-response model in GraphPad Prism (GraphPad Software, Inc., La Jolla, Calif.) and EC₅₀ values were reported (Table 9). EC₅₀ values are defined as the antibody concentration required to achieve 50% maximal binding to PAR-2 peptide.

Row | EC50 [pM] | Binder
31 | 12 | B1
32 | 20 | B2
33 | 61 | B3
34 | 17 | B4
35 | 13 | B5
36 | 12 | B6

Biological target: T1, Peptide A (human PAR-2), N-terminal …
Experiment: peptide ELISA titration
Protocol: as §3, §4

Row | EC50 [pM] | Binder
37 | 19 | B1
38 | 20 | B2
39 | 77 | B3
40 | 26 | B4
41 | 15 | B5
42 | 19 | B6

Biological target: T6, Peptide A (human PAR-2), C-terminal …
Experiment: peptide ELISA titration
Protocol: as §3, §4

Row | EC50 [pM] | Binder
43 | 15 | B1
44 | 28 | B2
45 | 76 | B3
46 | 21 | B4
47 | 18 | B5
48 | 16 | B6

Biological target: T4, Peptide A (human PAR-2), unbiotinylated
Experiment: peptide ELISA titration
Protocol: as §3, §4

Row | EC50 [pM] | Binder
49 | 12 | B1
50 | 12 | B2
51 | 38 | B3
52 | 17 | B4
53 | 8 | B5
54 | 10 | B6

Biological target: T4, Peptide A (human PAR-2), unbiotinylated
Experiment: SPR, antibody captured
Protocol: (§5) Equilibrium dissociation constants (KD values) for antigen binding to selected purified PAR-2 antibodies were determined by surface kinetics using a real-time surface plasmon resonance biosensor assay. Antibody was captured on either a rabbit anti-mouse IgG polyclonal antibody (GE Healthcare, Piscataway, N.J.) surface or a goat anti-human IgG polyclonal antibody (Jackson Immuno Research Lab, West Grove, Pa.) surface created through direct amine chemical coupling to a BIACORE™ CM5 sensor chip to form a captured antibody surface. […] Antigen-antibody binding and dissociation were monitored in real time at room temperature. Kinetic analysis was performed to calculate KD and half-life of antigen/antibody complex dissociation (Table 10). For those antibodies where no T_{1/2} value is shown, steady state analysis was used to calculate the KD value. NB: no binding observed under current experimental conditions. ND: not determined.

Row | Kd [pM] | T1/2 [min] | Binder
55 | 22000 | 0.73 | B1
56 | 9440 | 1.4 | B2
57 | 15000 | 4.1 | B3
58 | 8780 | 3.7 | B4
59 | 37100 | 0.37 | B5
60 | 4950 | 25.1 | B6

Biological target: T7, full length human PAR-2 (human, UniProt P55085 26-397)
T7 construct: overexpressed on HEK293-derived 293/D9 cells; also called 293/D9/hPAR-2rec cells
T7 sequence (P55085 26-397 G138A limits assumed): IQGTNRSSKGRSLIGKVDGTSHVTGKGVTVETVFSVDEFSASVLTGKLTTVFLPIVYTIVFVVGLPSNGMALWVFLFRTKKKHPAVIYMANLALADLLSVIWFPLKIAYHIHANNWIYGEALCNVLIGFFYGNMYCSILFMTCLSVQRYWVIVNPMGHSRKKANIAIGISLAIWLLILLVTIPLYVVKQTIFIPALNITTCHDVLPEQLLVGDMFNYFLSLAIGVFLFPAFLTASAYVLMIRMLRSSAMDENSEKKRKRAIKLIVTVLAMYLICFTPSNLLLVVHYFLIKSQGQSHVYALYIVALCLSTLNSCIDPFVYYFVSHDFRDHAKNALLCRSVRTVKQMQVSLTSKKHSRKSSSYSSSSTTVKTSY
Experiment: MSD cell binding
Protocol: HEK293 cells were transfected with an NF-κB-luciferase-IRES-eGFP reporter plasmid. […] A clonal cell line, named D9, having low background levels of luciferase activity and high levels of eGFP when induced with IL-1β was made by a series of successive sorts of cell populations using flow cytometry. The 293/D9 cell line was then separately transfected with human PAR-2 or mouse PAR-2 to create the stable cell lines 293/D9/h PAR-2rec and 293/D9/m PAR-2rec, respectively.
Cells were plated on MSD high-bind 96 well plates at a density of 4×10⁴ cells/well in PBS and incubated for one hour at room temperature. Cells were then blocked in PBS with 2% BSA and incubated at room temperature for one hour. Anti-PAR-2 antibodies (ranging from 100 nM to 0.098 nM) were serially diluted two-fold in PBS with 0.5% BSA and incubated with the cells for one hour at room temperature followed by washing in PBS with 0.5% BSA. Sulfo-tagged anti-human IgG antibody (MSD) at a concentration of 0.1 μg/ml was then added to the cell/antibody mixture and incubated at room temperature for an additional hour. After another wash, a 1× non-surfactant containing read buffer was added and electro-chemiluminescent signal was read on the MSD Sector Imager. Signal of antibody binding to 293/D9 cells was subtracted from signal to 293/D9/hPAR-2rec or 293/D9/mPAR-2rec cells. Subtracted data were analyzed using a sigmoidal dose-response model in GraphPad Prism and EC₅₀ and Bₘₐₓ values were reported (Table 18). EC₅₀ values are defined as the antibody concentration required to achieve 50% maximal binding (Bₘₐₓ) to cells.

Row | Bmax [MSD Unit] | EC50 [pM] | Binder
61 | 26000 | 1450 | B1
62 | 28200 | 652 | B2
63 | 25000 | 1860 | B3
64 | 22500 | 1950 | B4
65 | 13300 | 2120 | B5
66 | 27500 | 5950 | B6

Biological target: T7, full length human PAR-2
Experiment: cell-based or functional assay

Row | IC50, NF-kB-luciferase, 20 nM Trypsin [pM] | Binder
67 | 5600 | B1
68 | 1100 | B2
69 | 4100 | B3
70 | 8900 | B4
71 | 14000 | B5
72 | 16900 | B6

Biological target: T5, Peptide F (monkey PAR-2), N-terminal …
Experiment: SPR, antibody captured
Protocol: as §5

Row | Kd [pM] | T1/2 [min] | Binder
73 | 93300 | 0.23 | B1
74 | 36600 | 0.53 | B2
75 | 49400 | 2 | B3
76 | 46200 | 2 | B4
77 | 112000 | 0.47 | B5
78 | 10800 | 20 | B6
